Test results from patent US20240343811A1 (SHANDONG SIMCERE BIOPHARMACUTICAL, published 2024).
Substitutions are numbered along the chain they refer to. “And” between values parts separate entries of the source, which are not always exact repeats. Equal entries are not always repeated. Where two headings read alike, the source gives them in different places. Values belong to the binder of their own block, whether it stands above or below them.

Columns and labels:
[1] = biological target: T1, human CD16a (158F), full length, on FlpinCHO cells (human, UniProt P08637 17-254); assay: FACS on FlpinCHO cells
In short: (§1)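 EC50 comes from fitted concentration–MFI curves. Antibody dilutions were bound to the cells for 1 hour on ice in PBS blocking buffer with 2% BSA, followed by washing and flow cytometric readout.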

[2] = biological target: T2, human CD16a (158V), full length, on cells (human, UniProt P08637 17-254); assay: FACS on FlpinCHO cells
T2 construct: also used as target for the bought Jurkat-NFAT reporter line stably expressing human CD16a (158V); also called FlpinCHO-human CD16a (158V); FlpinCHO-CD16a (158V)
In short: as §1

[3] = biological target: T3, human CD16b (NA1), full length, on FlpinCHO cells (human, UniProt O75015 17-200); assay: FACS on FlpinCHO cells
T3 construct: also called FlpinCHO-human CD16b (NA1)
T3 chain: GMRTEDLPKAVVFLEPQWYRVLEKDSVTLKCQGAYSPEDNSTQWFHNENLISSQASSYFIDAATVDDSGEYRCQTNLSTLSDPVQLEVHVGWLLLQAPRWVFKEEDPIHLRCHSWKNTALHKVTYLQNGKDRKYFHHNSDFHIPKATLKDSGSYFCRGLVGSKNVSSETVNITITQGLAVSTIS
In short: (§2)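 EC50 values come from fitted MFI curves measured by FACS. Antibody dilutions were bound for 1 hour on ice to CD16b-transfected FlpinCHO cells suspended in PBS with 2% BSA blocking solution.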

[4] = biological target: T4, human CD16b (NA2), full length, on FlpinCHO cells (human, UniProt O75015 17-200); assay: FACS on FlpinCHO cells
T4 construct: also called FlpinCHO-human CD16b (NA2)
T4 chain: T3 chain with R20S, N49S, D66N, V90I
In short: as §2

[5] = biological target: T5, CD16 on primary human NK cells (human, UniProt P08637 17-254); assay: FACS on human NK cells
T5 construct: whole, on cells; also called resting NK cells
In short: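 EC50 came from curve fitting of flow-cytometric MFI. Antibody titrations were bound for 1 hour on ice to fresh human NK cells blocked in PBS with 2% (w/w) BSA (2×10⁶ cells/ml), followed by five PBS washes before acquisition.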

[6] = biological target: T6, cynomolgus monkey CD16, full length, on FlpinCHO cells (cynomolgus monkey, UniProt Q8SPW2 17-254); assay: FACS on FlpinCHO cells
T6 construct: also called FlpinCHO-cyno CD16; Flipin CHO-cyno CD16
T6 sequence (Q8SPW2 other isoform, or with tags, fused parts or gaps limits assumed): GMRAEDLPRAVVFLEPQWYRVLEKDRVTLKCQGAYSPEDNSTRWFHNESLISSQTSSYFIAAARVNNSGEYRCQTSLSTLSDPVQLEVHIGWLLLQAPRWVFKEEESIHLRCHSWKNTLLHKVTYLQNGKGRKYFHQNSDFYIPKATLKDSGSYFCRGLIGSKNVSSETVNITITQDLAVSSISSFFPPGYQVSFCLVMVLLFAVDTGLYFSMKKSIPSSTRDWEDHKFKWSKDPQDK
Description: (§3) The required cells were scale-up cultured in a T-75 cell culture flask to the logarithmic growth phase. The medium was aspirated, and the cells were washed twice with a PBS buffer and then digested with trypsin. After the digestion was terminated, the cells were washed twice with the PBS buffer. The cells were counted, and then the cell pellet was resuspended with a [PBS+2% (w/w) BSA] blocking solution to 2×10⁶ cells/ml, and added to a 96-well FACS reaction plate at 50 μl/well. […] 50 μl/well of the antibody to be detected was added at different concentrations, and incubated on ice for 1 hour. […] The mixture was centrifuged and washed 5 times with PBS, and FACS (FACS Canto II, purchased from BD Company) was used for detection and result analysis. Data analysis was performed by software (CellQuest) to obtain the mean fluorescence intensity (MFI) of the cells. Then, software (GraphPad Prism8) was used for analysis, data fitting and EC50 value calculation.
(§4) Flipin CHO-cyno CD16 cells were subjected to FACS detection and data analysis according to the method of Example 3.1.

[7] = biological target: T2, human CD16a (158V), full length, on …; assay: cell-based or functional assay
[8] = biological target: T1, human CD16a (158F), full length, on …; assay: FACS on FlpinCHO cells; remark: listed apart in the source
[9] = biological target: T2, human CD16a (158V), full length, on …; assay: FACS on FlpinCHO cells; remark: listed apart in the source
[10] = biological target: T3, human CD16b (NA1), full length, on …; assay: FACS on FlpinCHO cells
In short: as §2

[11] = biological target: T4, human CD16b (NA2), full length, on …; assay: FACS on FlpinCHO cells
In short: as §2

[12] = biological target: T6, cynomolgus monkey CD16, full length, on …; assay: FACS on FlpinCHO cells; remark: listed apart in the source
Description: as §3, §4

[13] = biological target: T2, human CD16a (158V), full length, on …; assay: cell-based or functional assay; remark: listed apart in the source
[14] = biological target: T1, human CD16a (158F), full length, on …; assay: FACS, biotinylated antibody
[15] = biological target: T2, human CD16a (158V), full length, on …; assay: FACS, biotinylated antibody
[16] = biological target: T5, CD16 on primary human NK cells; assay: FACS on human NK cells, biotinylated antibody
[17] = biological target: T5, CD16 on primary human NK cells; assay: FACS on human NK cells, biotinylated antibody; remark: listed apart in the source
[18] = biological target: T1, human CD16a (158F), full length, on …; assay: FACS, biotinylated antibody, +10 mg/mL human immunoglobulin
[19] = biological target: T2, human CD16a (158V), full length, on …; assay: as above
[20] = biological target: T5, CD16 on primary human NK cells; assay: FACS on human NK cells, biotinylated antibody, +10 mg/mL human immunoglobulin
[21] = biological target: T5, CD16 on primary human NK cells; assay: as above; remark: listed apart in the source
[22] = biological target: T1, human CD16a (158F), full length, on …; assay: FACS on FlpinCHO cells; remark: listed apart in the source
[23] = biological target: T2, human CD16a (158V), full length, on …; assay: FACS on FlpinCHO cells; remark: listed apart in the source
[24] = biological target: T3, human CD16b (NA1), full length, on …; assay: FACS on FlpinCHO cells
[25] = biological target: T4, human CD16b (NA2), full length, on …; assay: FACS on FlpinCHO cells
[26] = biological target: T6, cynomolgus monkey CD16, full length, on …; assay: FACS on FlpinCHO cells; remark: listed apart in the source

EC50 [1]: 0.62 nM and 0.98 nM
EC50 [2]: 0.85 nM and 1.03 nM
EC50 [3]: 3.18 nM and 5.5 nM
EC50 [4]: 14.2 nM and 5.12 nM
EC50 [5]: 0.84 nM
Maximum mean fluorescence intensity [5]: 2540
EC50 [6]: 0.58 nM
Maximum mean fluorescence intensity [6]: 29200
EC50, activation activity for Jurkat cell [7]: 0.04 nM
Maximum fluorescence value [7]: 158000
EC50 [8]: 0.56 nM
Maximum mean fluorescence intensity [8]: 9400
EC50 [9]: 0.54 nM
Maximum mean fluorescence intensity [9]: 8800
EC50 [10]: 3.36 nM
Maximum mean fluorescence intensity [10]: 43600
Maximum mean fluorescence intensity [11]: 63400
EC50 [12]: 0.62 nM
Maximum mean fluorescence intensity [12]: 20100
EC50, activation activity for Jurkat cell [13]: 0.06 nM
Maximum fluorescence value [13]: 149000
EC50 [14]: 0.41 nM and 0.39 nM
EC50 [15]: 0.58 nM and 0.77 nM
EC50 [16]: 1.33 nM
Maximum mean fluorescence intensity [16]: 33000
EC50 [17]: 0.99 nM
Maximum mean fluorescence intensity [17]: 30100
EC50 [18]: 2.97 nM and 2.63 nM
EC50 [19]: 3.32 nM and 2.87 nM
EC50 [20]: 5.4 nM
Maximum mean fluorescence intensity [20]: 30900
EC50 [21]: 4.3 nM
Maximum mean fluorescence intensity [21]: 28000
B1: P2C47 scFv-hFc (Fc fusion)
chain: SYVLTQPSSVSVAPGQTATISCGGHNIGSKNVHWYQQRPGQSPVLVIYQDNKRPSGIPERFSGSNSGNTATLTISGTQAMDEADYYCQVWDNYSVLFGGGTKLTVLGGGGSGGGGSGGGGSQVQLVQSGAEVKKPGESLKVSCKASGYTFTSYYMHWVRQAPGQGLEWMGAIEPMYGSTSYAQKFQGRVTMTRDTSTSTVYMELSSLRSEDTAVYYCARGSAYYYDFADYWGQGTLVTVSSEPKSSDKTHTCPPCPAPEEFGGPSVFLFPPKPKDTLMISRTPEVTCVVVAVSHEDPEVKFNWYVDGVEVHNAKTKPREEQYNSTYRVVSVLTVLHQDWLNGKEYKCKVSNKALPAPIEKTISKAKGQPREPQVYTLPPSREEMTKNQVSLTCLVKGFYPSDIAVEWESNGQPENNYKTTPPVLDSDGSFFLYSKLTVDKSRWQQGNVFSCSVMHEALHNHYTQKSLSLSPGK
notes: also called control antibody P2C47

Mean fluorescence intensity [22]: 3080
Mean fluorescence intensity [23]: 5870
Mean fluorescence intensity [24]: 28100
Mean fluorescence intensity [25]: 24800
Mean fluorescence intensity [26]: 5500
B2: 3G8 antibody as used to check the stably transfected cell lines (Example 1.3) (antibody, V domains shown)
VH: QVTLKESGPGILQPSQTLSLTCSFSGFSLRTSGMGVGWIRQPSGKGLEWLAHIWWDDDKRYNPALKSRLTISKDTSSNQVFLKIASVDTADTATYYCAQINPAWFAYWGQGTLVTVSA
VL: DTVLTQSPASLAVSLGQRATISCKASQSVDFDGDSFMNWYQQKPGQPPKLLIYTTSNLESGIPARFSASGSGTDFTLNIHPVEEEDTATYYCQQSNEDPYTFGGGTKLEIK
notes: also called CD16 antibody
